Assays:
[1] = molecular target: T1, Complex I with gH P171H, on virions of HB1 - mutant virus 1 (HCMV, UniProt P12824 24-743; P16832 31-278; P16837 28-171; F5HCP3 26-214; F5HET4 19-129); test: cell-based or functional assay
T1 chain 1: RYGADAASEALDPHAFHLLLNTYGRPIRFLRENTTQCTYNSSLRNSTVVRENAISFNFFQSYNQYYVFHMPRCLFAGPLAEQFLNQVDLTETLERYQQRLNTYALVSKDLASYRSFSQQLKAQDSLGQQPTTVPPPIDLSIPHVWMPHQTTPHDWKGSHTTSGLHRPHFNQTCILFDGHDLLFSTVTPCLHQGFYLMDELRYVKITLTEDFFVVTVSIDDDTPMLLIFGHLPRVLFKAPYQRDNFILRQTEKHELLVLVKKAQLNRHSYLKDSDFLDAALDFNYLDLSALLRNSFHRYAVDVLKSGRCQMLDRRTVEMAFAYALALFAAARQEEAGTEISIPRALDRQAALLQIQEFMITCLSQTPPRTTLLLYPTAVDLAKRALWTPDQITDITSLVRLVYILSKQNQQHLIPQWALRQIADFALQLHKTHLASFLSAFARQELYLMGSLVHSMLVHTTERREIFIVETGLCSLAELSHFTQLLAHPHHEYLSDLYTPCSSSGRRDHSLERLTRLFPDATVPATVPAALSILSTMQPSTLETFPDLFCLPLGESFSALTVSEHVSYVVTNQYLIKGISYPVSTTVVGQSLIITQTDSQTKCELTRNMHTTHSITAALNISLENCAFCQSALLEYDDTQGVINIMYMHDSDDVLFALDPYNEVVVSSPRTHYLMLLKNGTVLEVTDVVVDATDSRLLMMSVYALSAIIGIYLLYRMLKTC
T1 chain 2: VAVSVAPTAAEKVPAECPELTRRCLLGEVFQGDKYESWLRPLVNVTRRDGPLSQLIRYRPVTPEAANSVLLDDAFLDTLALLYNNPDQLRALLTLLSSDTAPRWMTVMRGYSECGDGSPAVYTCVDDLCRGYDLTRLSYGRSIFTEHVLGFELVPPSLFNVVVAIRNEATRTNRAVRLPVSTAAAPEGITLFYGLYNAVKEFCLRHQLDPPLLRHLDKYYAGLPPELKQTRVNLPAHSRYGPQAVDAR
T1 chain 3: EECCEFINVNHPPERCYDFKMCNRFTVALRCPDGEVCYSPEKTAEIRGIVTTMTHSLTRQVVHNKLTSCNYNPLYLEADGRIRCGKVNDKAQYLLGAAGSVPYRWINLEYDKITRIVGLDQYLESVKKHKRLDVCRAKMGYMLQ
T1 chain 4: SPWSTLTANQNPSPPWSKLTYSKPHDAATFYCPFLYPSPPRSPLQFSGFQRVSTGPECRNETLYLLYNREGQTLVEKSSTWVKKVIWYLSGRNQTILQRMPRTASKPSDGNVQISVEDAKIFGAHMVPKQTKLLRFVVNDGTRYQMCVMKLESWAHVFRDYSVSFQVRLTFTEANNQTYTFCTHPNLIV
T1 chain 5: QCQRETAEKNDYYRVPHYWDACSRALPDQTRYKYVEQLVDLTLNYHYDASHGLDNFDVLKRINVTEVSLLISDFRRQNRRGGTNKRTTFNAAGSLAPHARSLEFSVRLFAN

[2] = molecular target: T2, Complex I with gH P171S, on virions of HB1 - mutant virus 3 (HCMV, UniProt P12824 24-743; P16832 31-278; P16837 28-171; F5HCP3 26-214; F5HET4 19-129); test: cell-based or functional assay
T2 chain 1: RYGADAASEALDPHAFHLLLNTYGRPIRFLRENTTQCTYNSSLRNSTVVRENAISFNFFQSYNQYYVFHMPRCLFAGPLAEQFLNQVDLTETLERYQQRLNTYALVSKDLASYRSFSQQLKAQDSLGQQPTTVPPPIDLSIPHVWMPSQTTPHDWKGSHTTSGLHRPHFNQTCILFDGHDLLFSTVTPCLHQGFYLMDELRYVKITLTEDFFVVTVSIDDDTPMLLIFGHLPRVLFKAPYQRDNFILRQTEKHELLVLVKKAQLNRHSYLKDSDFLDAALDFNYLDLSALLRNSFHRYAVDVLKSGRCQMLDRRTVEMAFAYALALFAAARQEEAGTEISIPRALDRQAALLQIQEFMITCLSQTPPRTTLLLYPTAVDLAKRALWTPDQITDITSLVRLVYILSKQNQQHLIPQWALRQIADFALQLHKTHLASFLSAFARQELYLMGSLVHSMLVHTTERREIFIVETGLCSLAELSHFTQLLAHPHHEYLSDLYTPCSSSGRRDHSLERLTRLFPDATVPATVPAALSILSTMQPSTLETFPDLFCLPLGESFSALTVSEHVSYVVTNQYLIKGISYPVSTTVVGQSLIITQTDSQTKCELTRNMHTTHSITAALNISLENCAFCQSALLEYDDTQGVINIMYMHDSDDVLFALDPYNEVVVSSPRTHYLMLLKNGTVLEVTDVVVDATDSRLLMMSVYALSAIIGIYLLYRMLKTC
T2 chain 2: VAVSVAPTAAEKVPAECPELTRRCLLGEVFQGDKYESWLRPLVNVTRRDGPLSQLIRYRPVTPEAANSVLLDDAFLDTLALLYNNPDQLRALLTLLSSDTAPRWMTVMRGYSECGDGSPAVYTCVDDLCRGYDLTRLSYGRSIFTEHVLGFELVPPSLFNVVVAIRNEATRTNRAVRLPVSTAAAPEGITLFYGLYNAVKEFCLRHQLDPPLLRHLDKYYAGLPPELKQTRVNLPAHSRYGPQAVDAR
T2 chain 3: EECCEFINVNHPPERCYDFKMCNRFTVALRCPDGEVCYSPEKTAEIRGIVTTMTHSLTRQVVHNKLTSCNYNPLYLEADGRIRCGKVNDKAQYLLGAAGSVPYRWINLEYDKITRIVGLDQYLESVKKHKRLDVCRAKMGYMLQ
T2 chain 4: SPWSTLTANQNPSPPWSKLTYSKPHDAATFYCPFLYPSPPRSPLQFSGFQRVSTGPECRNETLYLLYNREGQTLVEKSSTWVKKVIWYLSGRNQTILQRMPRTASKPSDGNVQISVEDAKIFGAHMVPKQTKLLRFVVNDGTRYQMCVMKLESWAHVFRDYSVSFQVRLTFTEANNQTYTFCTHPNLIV
T2 chain 5: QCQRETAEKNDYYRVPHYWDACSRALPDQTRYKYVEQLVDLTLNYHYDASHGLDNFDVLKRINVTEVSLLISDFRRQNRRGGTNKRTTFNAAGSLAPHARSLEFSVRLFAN

[3] = molecular target: T3, gH/gL, full-length, on the surface of transfected HEK-293T cells (HCMV, UniProt P12824 24-743; P16832 31-278); test: FACS on transfected HEK-293T cells
T3 construct: also called cells expressing gH/gL alone; cell-surface expressed gH/gL

[4] = molecular target: T4, gH/gL/gO on the surface of cells (HCMV, UniProt P12824 24-743; P16832 31-278; F5HGP1 32-472); test: FACS on transfected cells, data not shown
T4 construct: also called Complex II; cells expressing gH/gL/gO
T4 sequence (F5HGP1 32-472 limits assumed, one chain of several): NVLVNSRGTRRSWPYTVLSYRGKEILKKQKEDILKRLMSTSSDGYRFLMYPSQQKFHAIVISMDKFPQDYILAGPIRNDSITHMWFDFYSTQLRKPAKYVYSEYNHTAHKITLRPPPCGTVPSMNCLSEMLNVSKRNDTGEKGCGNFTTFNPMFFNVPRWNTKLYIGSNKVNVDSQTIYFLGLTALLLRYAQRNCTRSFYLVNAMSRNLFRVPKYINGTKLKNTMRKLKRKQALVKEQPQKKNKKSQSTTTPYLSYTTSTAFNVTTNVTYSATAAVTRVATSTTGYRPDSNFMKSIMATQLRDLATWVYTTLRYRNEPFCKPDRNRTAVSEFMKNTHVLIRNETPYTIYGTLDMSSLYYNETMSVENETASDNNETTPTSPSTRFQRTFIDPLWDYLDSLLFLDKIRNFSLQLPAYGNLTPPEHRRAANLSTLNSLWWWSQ

B1: hu8G8 (lambda4 8G8 graft and hu8G8.VH1) (antibody, V domains shown)
VH: EVQLVQSGAEVKKPGASVKVSCKASGYTFTNYGMNWVRQAPGQGLEWIGWINTYTGEPTYADDFKGRVTITRDTSTSTAYLELSSLRSEDTAVYYCARSWYYVSNYWYFDVWGQGTLVTVSS
VL: SVLTQSPSASASLGASVKLTCTLSSQHSTYTIEWYQQQPGKGPRYLMKLKKDGSHSTGDGIPDRFSGSSSGADRYLTISNLQSEDEADYYCGVGDTIKEQFVYVFGGGTKLTVLG
notes: also called hu8G8 with VH1; Humanized 8G8 with VH1
- hu8G8 EC50, neutralisation of HB1 - mutant virus 1, Data Set 1 [1]: 10 ng/mL
- hu8G8 EC50, neutralisation of HB1 - mutant virus 1, Data Set 2 [1]: 0.6 ng/mL
- hu8G8 EC50, neutralisation of HB1 - mutant virus 3, Data Set 1 [2]: 1 ng/mL
- hu8G8 EC50, neutralisation of HB1 - mutant virus 3, Data Set 2 [2]: 0.1 ng/mL
- binding result [3]: no binding (tested: saturating primary antibody)
- binding result [4]: no binding

Reference: patent US20150376265A1 (Genentech, published 2015)
